Assay results: the supplement of paper PMC9732359
± gives the uncertainty stated by the source.

Test: protein stability index of a GFP-peptide fusion (yeast GPS) (PSI 1-4); higher = more stable; sorted into four equal gates, so the index is relative within each strain
Procedure, shortened: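 Sequencing reads from sorted gates were used to score each peptide. The library consisted of tiled 17-residue yeast protein peptides fused downstream of GFP on a Cherry-expressing plasmid, pooled and carried in yeast. Mid-log cultures in leucine-free medium were split into four equal gates by GFP/Cherry ratio, and each gate's plasmids were PCR-amplified and Illumina-sequenced. The protein stability index adds up, over all gates, the read frequency multiplied by the gate number.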

Sequence | protein stability index (doa10∆) | protein stability index (pdr5∆) | protein stability index (san1∆) | protein stability index (ubr1∆)
LNTVLIADLDTEAEETS [RRP43] | 3.11 ± 0.08 | 2.87 ± 0.065 | 3.04 ± 0.047 | 3.21 ± 0.051
LPYLSDTCAVSFDAVSD [YJR042W/NUP85] | 2.44 ± 0.1 | 2.63 ± 0.059 | 2.55 ± 0.078 | 2.87 ± 0.05
SRSTDNFHNSKKRMNSN [RRI1] | 2.11 ± 0.06 | 2.4 ± 0.081 | 2.26 ± 0.1 | 2.61 ± 0.081
QKYNLLHVLPTLNSRAL [SNM1] | 1.45 ± 0.084 | 1.74 ± 0.078 | 1.27 ± 0.18 | 1.56 ± 0.11
HDSSNGLFQVLHNFESV [NUT1] | 3.16 ± 0.064 | 3.15 ± 0.064 | 2.79 ± 0.07 | 3.242 ± 0.031
ETKTKKEKIKGLQDEIM [SMC4] | 3.12 ± 0.11 | 3.32 ± 0.13 | 3.13 ± 0.06 | 3.38 ± 0.068
GTYIQERNPTQRPQRRY [RPS10A] | 3.01 ± 0.051 | 3.1 ± 0.041 | 3.07 ± 0.034 | 3.14 ± 0.032
ENSFYKKEASKTKWDRK [POP1] | 2.25 ± 0.063 | 2.37 ± 0.063 | 2.3 ± 0.068 | 2.22 ± 0.048
TALEHKVVNGNSADAAY [FAS2] | 2.84 ± 0.08 | 3.09 ± 0.088 | 3.05 ± 0.063 | 3.13 ± 0.06
RMFEKNVMLNIYPRTVI [SKI6] | 2.21 ± 0.14 | 1.37 ± 0.11 | 1.06 ± 0.27 | 2.24 ± 0.094
MDTSDDAFVATAFATEF [DLS1] | 2.82 ± 0.07 | 3.08 ± 0.09 | 2.75 ± 0.081 | 2.8 ± 0.044
SARNYDKFKLNENDLKT [SMC1] | 2.55 ± 0.093 | 2.46 ± 0.088 | 2.35 ± 0.22 | 2.53 ± 0.063
ELNDIDTKIDQVNGNIR [SMC3] | 3.34 ± 0.22 | 3.34 ± 0.12 | 3.07 ± 0.13 | 3.2 ± 0.1
ILLTSISRERDLFTHLW [SRP68] | 2.85 ± 0.13 | 2.71 ± 0.18 | 2.75 ± 0.1 | 2.73 ± 0.11
REGRHSGYGKRKGTREA [RPL19A] | – | 3.21 ± 0.27 | – | 3.52 ± 0.25
ALTNELNELKAIKDKLE [YIL149C/MLP2] | 1.35 ± 0.061 | 2.01 ± 0.07 | 1.89 ± 0.096 | 1.96 ± 0.058
GHIGAYLIVAGVDPTGS [PUP1] | 1.48 ± 0.1 | 1.83 ± 0.093 | 1.68 ± 0.16 | 1.65 ± 0.11
DPNIKVNDTVKIDLASG [RPS4A] | 2.81 ± 0.079 | 2.75 ± 0.063 | 2.73 ± 0.087 | 2.41 ± 0.053
DSSSVSEDSAVFKATSS [FAS1] | 3 ± 0.089 | 3.32 ± 0.096 | 2.98 ± 0.065 | 3.14 ± 0.083
IKIFELKLPADATTWRY [IRR1] | 2.03 ± 0.056 | 2.06 ± 0.049 | 2.26 ± 0.08 | 2.39 ± 0.046

Sequence | protein stability index (doa10∆) | protein stability index (pdr5∆) | protein stability index (san1∆) | protein stability index (ubr1∆)
TKIGAKRIHSVRTRGGN [RPS8A] | 2.84 ± 0.15 | 3.05 ± 0.11 | 2.93 ± 0.088 | 2.72 ± 0.12
CAMSGLTADARSMIEHA [PUP2] | 2.3 ± 0.13 | 2.94 ± 0.18 | – | 2.64 ± 0.12
NENKVIIELPNEKFEIE [SRB4] | 2.89 ± 0.077 | 2.86 ± 0.081 | 2.94 ± 0.055 | 2.8 ± 0.042
QMEDMEESINEFKSIEI [SMC4] | 3.28 ± 0.13 | 3.4 ± 0.11 | 3.27 ± 0.049 | 2.93 ± 0.085
DVFTINPHQKDQLIISS [YML103C/NUP188] | 1.56 ± 0.18 | 2.19 ± 0.19 | 1.62 ± 0.24 | 2.74 ± 0.24
KNLIQLISLKLLTFEVT [SRB8] | 1.28 ± 0.081 | 1.19 ± 0.054 | 1.24 ± 0.13 | 1.1 ± 0.071
EHWKVRNFKKANLVNKE [BRN1] | 2.06 ± 0.1 | 1.5 ± 0.051 | 1.54 ± 0.13 | 1.83 ± 0.05
AEKKVVRLTSRQRGRIA [RPL17A] | 2.88 ± 0.18 | 1.28 ± 0.074 | 1.45 ± 0.19 | 1.14 ± 0.093
IAAKTHILRISFLDRKR [SIN4] | 2.53 ± 0.1 | 2.65 ± 0.09 | 1.84 ± 0.073 | 2.42 ± 0.049
SKKTSPKATSSAGAVFK [YOR098C/NUP1] | 2.7 ± 0.12 | 2.42 ± 0.086 | 2.54 ± 0.085 | 2.61 ± 0.046
YILRYLHANGASFFFMV [COB] | 1.57 ± 0.041 | 1.27 ± 0.033 | 1.39 ± 0.081 | 1.36 ± 0.038
IVKTSSGNEMPPQDAEG [RPS19A] | 2.3 ± 0.25 | 3.46 ± 0.29 | – | –
LQSDKNFLDNCLFENDL [ITC1] | 2.13 ± 0.079 | 3.03 ± 0.073 | 2.92 ± 0.055 | 3.01 ± 0.059
YVLYAKIVVLSRTGPVF [RRP43] | 1.29 ± 0.097 | 1.15 ± 0.077 | 1.11 ± 0.16 | 1.19 ± 0.06
ESLVHSALCILKEQELV [BRR2] | 2.35 ± 0.2 | 1.77 ± 0.079 | 1.92 ± 0.14 | 2.51 ± 0.13
LVDLKKELAELKVQKLS [RPL35A] | 1.2 ± 0.066 | 1.59 ± 0.097 | 1.46 ± 0.12 | 1.68 ± 0.085
AAGANVDNVWADVYAKA [RPP1B] | 3.2 ± 0.096 | 3.16 ± 0.14 | 2.77 ± 0.14 | 2.96 ± 0.12
LEGEEIKSEEKKGKSSD [RPN1] | 2.19 ± 0.077 | 2.17 ± 0.07 | 3.05 ± 0.084 | 2.4 ± 0.043
KREEKAMTIYWDDHTKK [CDC53] | 2.5 ± 0.076 | 2.2 ± 0.068 | 3.45 ± 0.072 | 2.25 ± 0.051
